Data on two substances can be found in patent US20200173986A1.

Experiment [1] has as its target endogenous SNAP25 in total cell lysate. Nature of the experiment: sandwich ELISA with total cell lysate, negative control. On the technique in general: In an ELISA, binding on a coated surface is turned into a signal by an enzyme label.
Experiment [2] has the same target. The description is as above. The source holds these as a separate data set.
Experiment [3] has the same target. The experiment is described as above. This is another data set of the same source.
The target is the same in experiment [4]. Nature of the experiment: sandwich ELISA with total cell lysate, positive control.
Experiment [5] has the same target. Described as above. This is another data set of the same source.
The target is the same in experiment [6]. The description is as above. The source holds these as a separate data set.

Chain of endogenous SNAP25 in total cell lysate (P60879 whole entry): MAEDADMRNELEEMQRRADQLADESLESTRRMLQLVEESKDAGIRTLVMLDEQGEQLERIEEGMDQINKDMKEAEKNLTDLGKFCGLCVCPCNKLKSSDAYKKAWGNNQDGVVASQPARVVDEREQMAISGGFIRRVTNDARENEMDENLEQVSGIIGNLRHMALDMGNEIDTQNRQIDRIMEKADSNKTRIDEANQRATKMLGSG

For NC, the results for the ELISA signal (A450) in experiment [1], in experiment [2] and in experiment [3] were 0.213, 0.125 and 0.27, respectively.
For PC, the ELISA signal (A450) was found to be 3.49 in experiment [4], 2.5 in experiment [5] and 2.77 in experiment [6].
